The source of these data is publication PMC9908889.

For data set [1], the system named is MORF WH2 (Homo sapiens). As to the kind of experiment: EMSA. The note with it: EMSA: 20-25 mM Tris-HCl pH 7.5, 20-150 mM NaCl, 0-0.2 mM EDTA, 0-5 mM DTT, 0-20% glycerol, 4 C, NCP197 EMSA: 10 mM Tris, 1 mM EDTA, 10 mM NaCl, 1 mM TCEP, FP: ….
For data set [2], the target named is T1, MORF WH1 (Homo sapiens) (UniProt Q8WYB5).
T1 sequence: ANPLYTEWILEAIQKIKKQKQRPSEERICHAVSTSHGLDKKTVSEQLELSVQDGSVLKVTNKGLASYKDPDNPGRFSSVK
As to the kind of experiment: EMSA. The note with it: His-tagged; EMSA: 20-25 mM Tris-HCl pH 7.5, 20-150 mM NaCl, 0-0.2 mM EDTA, 0-5 mM DTT, 0-20% glycerol, 4 C; NCP197 EMSA: 10 mM Tris, 1 mM EDTA, 10 mM NaCl, 1 mM TCEP; FP: …. For orientation: Mobility shift assays separate free from complexed probe on a gel.

For data set [3], the target named is T2, MORF WH1-WH2 (Homo sapiens) (UniProt Q8WYB5).
T2 sequence: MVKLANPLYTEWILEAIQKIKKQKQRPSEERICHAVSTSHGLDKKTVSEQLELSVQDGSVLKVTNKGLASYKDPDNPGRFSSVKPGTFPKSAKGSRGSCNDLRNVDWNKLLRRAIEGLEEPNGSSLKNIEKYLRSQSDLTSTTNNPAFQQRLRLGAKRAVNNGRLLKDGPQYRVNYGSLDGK
As to the kind of experiment: fluorescence polarization. The note with it: EMSA: 20-25 mM Tris-HCl pH 7.5, 20-150 mM NaCl, 0-0.2 mM EDTA, 0-5 mM DTT, 0-20% glycerol, 4 C; NCP197 EMSA: 10 mM Tris, 1 mM EDTA, 10 mM NaCl, 1 mM TCEP; FP: ….

For data set [4], the target named is T1, MORF WH1 (Homo sapiens). As to the kind of experiment: fluorescence polarization. As to conditions: EMSA: 20-25 mM Tris-HCl pH 7.5, 20-150 mM NaCl, 0-0.2 mM EDTA, 0-5 mM DTT, 0-20% glycerol, 4 C; NCP197 EMSA: 10 mM Tris, 1 mM EDTA, 10 mM NaCl, 1 mM TCEP; FP: …. (In fluorescence polarisation assays a small probe gives low polarisation when free and higher when bound to something large.)

Data set [5] has as its system MORF WH2 (Homo sapiens). As to the kind of experiment: fluorescence polarization. The note with it: EMSA: 20-25 mM Tris-HCl pH 7.5, 20-150 mM NaCl, 0-0.2 mM EDTA, 0-5 mM DTT, 0-20% glycerol, 4 C, NCP197 EMSA: 10 mM Tris, 1 mM EDTA, 10 mM NaCl, 1 mM TCEP, FP: ….

Usually Kd stands for the free concentration of one partner at which half of the binding sites on the other are occupied at equilibrium, for simple one-to-one binding. In data set [1] (source data name GST-MORF WH2), A-DNA15 (15 bp A-rich) showed a Kd of 7.8 µM.
In the case of C-DNA15 (15 bp C-rich), in data set [1], the Kd was determined as 18 µM.
Regarding CpG-DNA16, in data set [2], the Kd is 2 µM. This counts as single-digit micromolar.
With DNA147 (601 Widom), the K half worked out at 62 nM in data set [3] and 15 µM in data set [4].
For the substance NCP147, the figures for the K half in data set [3], in data set [5] and in data set [4] were 12 nM, 1000 nM and 9 µM, respectively.
On to NCP207, for which the K half was 7 nM in data set [3]; 1400 nM in data set [5] (text says NCP187, source data and Methods say NCP207); 0.3 µM in data set [4].
